For experiment [1], the target named is T1, human mature BMP9 (human, UniProt Q9UK05 320-429).
T1 construct: also called GDF2; Human BMP9-biotin
T1 sequence: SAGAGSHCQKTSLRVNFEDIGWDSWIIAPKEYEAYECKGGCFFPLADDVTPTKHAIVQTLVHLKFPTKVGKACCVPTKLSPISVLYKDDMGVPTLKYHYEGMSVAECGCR
The experiment in a line: method not stated (legend of the crystal structure figure).

Experiment [2] has as its target T1, human mature BMP9. The experiment in a line: competition ELISA: antibody mixed with 0.6 nM BMP9-biotin, binding to coated BMPRII (1 µg/ml) detected. As to the method: For competition ELISAs, each receptor protein was coated on a 384-well ELISA plate at its optimal coating concentration, 20 μl/well in PBS-CMF at 4° C. overnight. The next day, plates were washed 3 times with PBS+0.05% TWEEN™ 20 and blocked with PBS+1% BSA for 1 hr at RT with shaking. Anti-BMP9 Abs were serially diluted 3-fold in PBS+1% BSA, starting from 100 nM, then mixed with the same volume of the optimal concentration of biotinylated BMP9. The final concentration of biotinylated BMP9 corresponded to the EC₉₀ for each receptor, as determined in a preliminary experiment described above.
Serially diluted Abs were incubated with biotinylated BMP9 for at least 15 min at RT. Plates were washed as before, followed by addition of serially diluted Abs and the biotinylated BMP9 mixture. After incubating for 1 hr at RT, plates were washed 3 times with PBS+0.05% TWEEN™ 20. Secondary antibody was added (HRP-Streptavidin from BioLegend, cat #405210, 1:2000), followed by 1 hr incubation at RT. Plates were washed as before, signal was developed using TMB substrate, and the reaction stopped with 0.18 M H₂SO₄. Absorbance was read at 450 nm on an ENVISION® plate reader (Perkin Elmer).
(In general: An ELISA detects its analyte on a solid surface through an enzyme-linked reagent.)

Experiment [3] deals with T1, human mature BMP9. The experiment in a line: cell-based or functional assay.
In experiment [4] the target is T1, human mature BMP9. In words: cell-based or functional assay. This is another data set of the same source.
In experiment [5] the target is T1, human mature BMP9. The experiment in a line: cell-based or functional assay. The source holds these as a separate data set.
For experiment [6], the target named is T2, cyno BMP9 (mature) (cynomolgus monkey, UniProt G7PEU8 320-429).
T2 sequence: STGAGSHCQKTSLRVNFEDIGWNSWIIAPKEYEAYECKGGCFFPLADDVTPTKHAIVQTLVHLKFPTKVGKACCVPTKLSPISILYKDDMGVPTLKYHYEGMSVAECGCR
In words: cell-based or functional assay.

The target of experiment [7] is T3, rat BMP9 (mature) (rat, UniProt M0RB87 320-430, Chemically biotinylated for capture on the SPR chip; sites not stated. Natural mature BMP9 is a disulfide-linked homodimer; one monomer chain is given.).
T3 sequence: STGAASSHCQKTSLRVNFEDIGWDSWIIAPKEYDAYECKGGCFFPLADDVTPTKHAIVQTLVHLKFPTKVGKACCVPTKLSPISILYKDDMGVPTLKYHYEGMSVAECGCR
In words: cell-based or functional assay.

Experiment [8] has as its target T2, cyno BMP9 (mature). In words: cell-based or functional assay. The source holds these as a separate data set.
Experiment [9] concerns the target T1, human mature BMP9. In words: cell-based or functional assay. The source holds these as a separate data set.
Experiment [10] addresses T3, rat BMP9 (mature). The experiment in a line: cell-based or functional assay. This is another data set of the same source.
The target in experiment [11] is T1, human mature BMP9. In words: cell-based or functional assay. The source holds these as a separate data set.
For experiment [12], the target named is T3, rat BMP9 (mature). In words: cell-based or functional assay. The source holds these as a separate data set.
In experiment [13] the target is T2, cyno BMP9 (mature). In words: cell-based or functional assay. This is another data set of the same source.
The target in experiment [14] is T1, human mature BMP9. In words: cell-based or functional assay. This is another data set of the same source.
The target in experiment [15] is T2, cyno BMP9 (mature). The experiment in a line: cell-based or functional assay. The source holds these as a separate data set.
Experiment [16] deals with T1, human mature BMP9. The experiment in a line: cell-based or functional assay. This is another data set of the same source.
Experiment [17] concerns the target T3, rat BMP9 (mature). In words: cell-based or functional assay. This is another data set of the same source.

“And” between values parts separate entries of the source, which are not always exact repeats. Equal values may be shown once. Read-outs that look alike come from different tables or passages of the source.

B1: Ab1076 (antibody, human IgG1, lambda, V domains shown)
VH: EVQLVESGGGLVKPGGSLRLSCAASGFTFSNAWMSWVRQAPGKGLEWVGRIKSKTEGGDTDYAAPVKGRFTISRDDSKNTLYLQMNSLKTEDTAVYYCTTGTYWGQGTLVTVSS
VL: QSVLTQPPSASGTPGQRVTISCSVTNTDIDIFNVHWYQQLPGTAPKLLFFHDYRPSGVSDRFSGSKSGTSASLAIVGLQSEDEGYYYCAGLDEAMRGPVFGGGTKLTVLG
notes: The heavy chain can be prepared with or without the C-terminal lysine
For B1, the “fold increase in binding affinity relative to Ab93” value with human mature BMP9 [1] is around 20 fold. The “IC50 (read off the curve)” value in the experiment with human mature BMP9 [2] was around 0.3 nM. Moreover, the “IC50 (read off the curve): BMP9-induced pSMAD2 nuclear translocation, TIME cells” value with human mature BMP9 [3] and with human mature BMP9 [5] was around 0.04 nM in each case. Moreover, the “IC50 (read off the curve): BMP9-induced pSMAD1/5/9 nuclear translocation, TIME cells” value with human mature BMP9 [4] and with human mature BMP9 [16] was around 0.03 nM throughout. In addition, in the experiment with cyno BMP9 (mature) [6], the “IC50 (read off the curve): BMP9-induced pSMAD1/5/9 nuclear translocation, cynomolgus monkey PAEC” value is around 0.02 nM. Further, the “IC50 (read off the curve): Rat BMP9-induced pSMAD1/5/9 nuclear translocation, TIME cells” value with rat BMP9 (mature) [7] was around 0.1 nM. For the same molecule, the “IC50 (read off the curve): Cyno BMP9-induced pSMAD1/5/9 nuclear translocation, TIME cells” value with cyno BMP9 (mature) [8] was around 0.1 nM. Besides, in the experiment with human mature BMP9 [9], the “IC50 (read off the curve): Human BMP9-induced pSMAD1/5/9 nuclear translocation, TIME cells” value is around 0.1 nM. In addition, the “IC50 (read off the curve): BMP9-induced pSMAD1/5/9 nuclear translocation, rat LSEC” value in the experiment with rat BMP9 (mature) [10] is around 0.3 nM. Besides, in the experiment with human mature BMP9 [11], the “IC50 (read off the curve): BMP9-induced pSMAD2 nuclear translocation, HPAEC” value was around 0.03 nM. The “IC50, inhibition of BMP9-induced phospho-SMAD2 nuclear translocation in endothelial cells” value in the experiment with rat BMP9 (mature) [12] was 0.465 nM and 1 nM; with cyno BMP9 (mature) [13], 0.027 to 0.042 nM. The “IC50 (read off the curve): BMP9-induced pSMAD1/5/9 nuclear translocation, HPAEC” value in the experiment with human mature BMP9 [14] is around 0.04 nM. Moreover, the “IC50 (read off the curve): BMP9-induced pSMAD2 nuclear translocation, cynomolgus monkey PAEC” value with cyno BMP9 (mature) [15] was in the range of 0.016 to 0.03 nM. Further, the “IC50 (read off the curve): BMP9-induced pSMAD2 nuclear translocation, rat LSEC” value with rat BMP9 (mature) [17] is around 0.5 nM.

These data come from patent US20240083991A1 (Pfizer, published 2024).
